Article PMC2700083, “A covalent peptide inhibitor of RGS4 identified in a focused one-bead, one compound library screen” (BMC Pharmacology, 2009)
Where a chain is given by its changes, count along the chain named. Bridges are numbered along the chain shown (N, C = ends).

T1: RGS8 full length, MBP fusion (human, UniProt P57771 1-180, biotin (sites not given))
T1 construct: RGS8, human, full length; source: expressed, purified and labeled as described previously [5]
T1 sequence (looked up): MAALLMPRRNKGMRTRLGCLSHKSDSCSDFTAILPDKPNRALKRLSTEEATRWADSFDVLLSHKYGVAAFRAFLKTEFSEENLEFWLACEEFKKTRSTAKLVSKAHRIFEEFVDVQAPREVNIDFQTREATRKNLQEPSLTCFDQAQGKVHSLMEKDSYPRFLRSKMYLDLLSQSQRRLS

T2: RGS19ΔC11 (amino acids 1–209), MBP fusion (human, UniProt P49795 1-209)
T2 construct: RGS19, human, ΔC11, amino acids 1-209; source: expressed, purified and labeled as described previously [5]
T2 sequence (looked up): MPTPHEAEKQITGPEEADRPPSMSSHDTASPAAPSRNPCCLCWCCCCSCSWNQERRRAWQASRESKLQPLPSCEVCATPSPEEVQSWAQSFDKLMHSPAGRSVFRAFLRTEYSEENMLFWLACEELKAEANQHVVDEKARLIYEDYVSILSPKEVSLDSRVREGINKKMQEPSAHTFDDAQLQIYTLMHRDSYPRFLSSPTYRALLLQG

T3: RGS7 RGS domain (aa: 305–453), MBP fusion (human, UniProt P49802 305-453)
T3 construct: RGS7, human, RGS domain, aa 305-453; source: expressed, purified and labeled as described previously [5]
T3 sequence (looked up): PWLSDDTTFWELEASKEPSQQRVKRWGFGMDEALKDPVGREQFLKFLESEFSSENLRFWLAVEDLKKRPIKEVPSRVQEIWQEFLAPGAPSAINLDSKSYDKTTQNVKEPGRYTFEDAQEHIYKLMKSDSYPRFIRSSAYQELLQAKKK

T4: RGS16 full length, MBP fusion (human, UniProt O15492 1-202)
T4 construct: RGS16, human, full length; source: expressed, purified and labeled as described previously [5]
T4 sequence (looked up): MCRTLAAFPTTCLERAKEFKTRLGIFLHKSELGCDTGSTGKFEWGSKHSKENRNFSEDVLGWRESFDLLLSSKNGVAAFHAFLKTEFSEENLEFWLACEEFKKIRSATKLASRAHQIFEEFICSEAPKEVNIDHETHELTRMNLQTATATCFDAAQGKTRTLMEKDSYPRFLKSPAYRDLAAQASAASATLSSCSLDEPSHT

B1: Peptide 5nd (Tyr-Trp-c[Cys-Lys-Gly-Leu-Cys]-Lys-NH2, S-S) (peptide)
peptide: H-YWCKGLCK-NH2
modifications: disulfide 3-7
SMILES: CC(C)C[C@@H]1NC(=O)CNC(=O)[C@H](CCCCN)NC(=O)[C@@H](NC(=O)[C@H](Cc2c[nH]c3ccccc23)NC(=O)[C@@H](N)Cc2ccc(O)cc2)CSSC[C@@H](C(=O)N[C@@H](CCCCN)C(N)=O)NC1=O
notes: hit peptide from the focused OBOC library screen; also called peptide 7nd in Roof et al, 2008; hit 5; source: synthetic peptide
B2: Peptide 2nd (GTCFGTCW-NH2, S-S) (peptide)
peptide: H-GTCFGTCW-NH2
modifications: disulfide 3-7 (inferred)
notes: hit peptide from the focused OBOC library screen; also called hit 2; source: synthetic peptide
B3: Peptide 6nd (KHCYGFCY-NH2, S-S) (peptide)
peptide: H-KHCYGFCY-NH2
modifications: disulfide 3-7 (inferred)
notes: hit peptide from the focused OBOC library screen; also called hit 6; peptide 14 in Roof et al 2008; source: synthetic peptide
B4: MBP-RGS4Δ51N C148A (domain or fragment)
chain: not shown
modifications: biotin (sites not given)
notes: RGS4Δ51N; source: expressed, purified and labeled as described previously [5]; not shown: MBP, N-terminal, kept
B5: Peptide 5ad (Ac-YWCKGLCK-NH2, S-S) (peptide)
peptide: Ac-YWCKGLCK-NH2
modifications: disulfide 3-7 (inferred)
notes: hit peptide from the focused OBOC library screen; source: synthetic peptide
B6: Peptide 6ad (Ac-KHCYGFCY-NH2, S-S) (peptide)
peptide: Ac-KHCYGFCY-NH2
modifications: disulfide 3-7 (inferred)
notes: as for B5
B7: MBP-RGS4Δ51N, wild type, biotinylated (domain or fragment, UniProt P49799 52-205, looked up)
chain: SQEEVKKWAESLENLINHECGLAAFKAFLKSEYSEENIDFWISCEEYKKIKSPSKLSPKAKKIYNEFISVQATKEVNLDSCTREETSRNMLEPTITCFDEAQKKIFNLMEKDSYRRFLKSRFYLDLTNPSSCGAEKQKGAKSSADCTSLVPQCA
modifications: biotin (sites not given)
notes: RGS4 from which the amphipathic N-terminal helix has been removed (RGS4Δ51N); Rat RGS4 is surmised from the group's earlier work; His6 lies between MBP and RGS4 (MBP-His6-RGS4Δ51N) with a TEV site; also called wild type RGS4-biotin; biotin-RGS4; source: expressed, purified and labeled as described previously [5]; not shown: MBP, N-terminal, kept
B8: MBP-RGS4Δ51N C132A (domain or fragment, UniProt P49799 52-205, looked up)
chain: B7 chain with C81A
modifications: biotin (sites not given)
notes: as for B4
B9: MBP-RGS4Δ51N C95A (domain or fragment, UniProt P49799 52-205, looked up)
chain: B7 chain with C44A
modifications: biotin (sites not given)
notes: as for B4
B10: MBP-RGS4Δ51N C71A (domain or fragment, UniProt P49799 52-205, looked up)
chain: B7 chain with C20A
modifications: biotin (sites not given)
notes: as for B4

Legend:
Conditions in all cases: both partners purified
[1] = target: B9; assay: FCPIA (flow cytometry protein interaction assay, Luminex beads); dose curves of 5nd on RGS4 cysteine mutants (5 nM, or 20 nM for the mutants with no Cys in the domain or the C-terminus) and labeled Gαo; curves constrained to 100% and 0%
[2] = target: B10; assay: as above
[3] = target: B4; assay: as above
[4] = target: B7; assay: as above
[5] = target: B8; assay: as above
[6] = target: T1, RGS8 full length, MBP fusion; assay: FCPIA (flow cytometry protein interaction assay, Luminex beads); dose response curves for 5nd with different RGS proteins on beads and labeled Gαo; curves constrained to 100% and 0%
[7] = target: B7; assay: as above
[8] = target: T2, RGS19ΔC11 (amino acids 1–209), MBP …; assay: as above
[9] = target: T3, RGS7 RGS domain (aa: 305–453), MBP …; assay: as above
[10] = target: T4, RGS16 full length, MBP fusion; assay: as above
[11] = target: B7; assay: FCPIA (flow cytometry protein interaction assay, Luminex beads); competition at one peptide concentration (50 μM unless the cell says otherwise); 5 nM wild type RGS4-biotin on avidin beads, 25 nM Gαo-Alexa Fluor 532, with AMF (AlCl3, MgCl2, NaF and GDP)
[12] = target: T5, Gαo, Alexa Fluor 532-labeled (UniProt P59215 1-354, Alexa Fluor 532 label (sites not given)); assay: FCPIA (flow cytometry protein interaction assay, Luminex beads); Gαo affinities for RGS4Δ51N wild type and mutants on beads, with AMF
T5 construct: G protein alpha subunit Gαo; Used in the presence of AMF (AlCl3, MgCl2, NaF and GDP) to put it into a transition state-like conformation; source: expressed, purified and labeled as described previously [5]
T5 sequence (P59215 whole entry): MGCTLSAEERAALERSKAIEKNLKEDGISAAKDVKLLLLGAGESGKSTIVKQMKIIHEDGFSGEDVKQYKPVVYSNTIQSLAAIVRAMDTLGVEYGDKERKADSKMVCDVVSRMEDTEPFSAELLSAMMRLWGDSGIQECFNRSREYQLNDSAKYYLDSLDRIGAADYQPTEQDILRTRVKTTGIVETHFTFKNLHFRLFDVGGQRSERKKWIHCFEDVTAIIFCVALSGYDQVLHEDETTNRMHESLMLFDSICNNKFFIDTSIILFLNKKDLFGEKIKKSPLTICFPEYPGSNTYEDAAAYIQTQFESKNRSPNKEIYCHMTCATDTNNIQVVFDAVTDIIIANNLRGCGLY

With B1 the logIC50 [1] was -4.71 log M, the logIC50 [2] was -4.34 log M and the logIC50 [3] was -4.27 log M. It also gave a logIC50 [4] of -4.36 log M, a logIC50 [5] of -3.86 log M and an IC50 [6] of 43 µM. It also gave a logIC50 [6] of -4.36 log M, an IC50 [7] of 28 µM and a logIC50 [7] of -4.56 log M. The IC50 [8] was about 145 µM, the logIC50 [8] was about -3.84 log M and the IC50 [9] was about 175 µM. The logIC50 [9] was about -3.76 log M, the IC50 [10] was 66 µM and the logIC50 [10] was -4.18 log M. For the same binder, the “% inhibition of RGS4-Gαo” value [11] was 80%.

With B2 the “% inhibition of RGS4-Gαo” value [11] was 19%.

For B3, the “% inhibition of RGS4-Gαo” value [11] was 23%.

Work on B4 yielded a Kd [12] of 0.00684 µM.

In the case of B5, the “% inhibition of RGS4-Gαo” value [11] is reported as 37%.

For B6, the “% inhibition of RGS4-Gαo” value [11] was 27%.

Binder B7 has a Kd [12] of 0.0116 µM.

For B8, the Kd [12] was 0.0079 µM.

B9 was tested, and the Kd [12] was 0.00817 µM.

B10 gave a Kd [12] of 0.0122 µM.
